# Data as given in the nanobody polyreactivity screen of Harvey et al. (2022).
# Experiment: yeast display, Sf9 membrane polyspecificity reagent, FACS + sequencing; frameworks hold sequencing errors
# In short: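 Polyreactivity labels are assigned by the sorting gate from which each nanobody was recovered. The gates were low and high (top ~1%), set on anti-HA fluorescence for expression and streptavidin fluorescence for reagent binding. Before sorting, galactose-induced (36–48 hours) yeast display cells were stained for 1 hour at 4 °C with 10% biotinylated, detergent-solubilized Sf9 membrane reagent.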
row,Sequence,polyreactivity (PSR sort gate)
1,QVQLVESGGGLVQAGGSLRLSCAASGRTFGPYALGWYRQAPGKERELVATSSSNGASTYYADSVKGRFTISRDNAKNTVYLQMNSLKPEDTAVYYCAAEFHFWGYLYDYWGQGTQVTVSS,low polyreactivity
2,QVQLVESGGGLGQAGGSLRLSCAASGRTFPIYVMGWYRQAPGKERELVASISASGVRTYFADSVKGRFTISRDNAKNTVYLQMNSLKPEDTAVYYCATQVRRWYSARSPNVRFDYWGQGTQVTVSS,high polyreactivity
3,QVQLVESGGGLVQAGGSLRLSCAASGFTFDYNPMGWYRQAPGKERELVAAISNTGDSTYYADSVKGRFTISRDNAKNTDYLQMNSLKPDDTAVYYCAADCLFDVYWEYDYWGQGTQVTVSS,low polyreactivity
4,QVQLVESGGGLVQAGGSLRLTCAASGYIQPKNTMGWYRQAPGKERELVAAISWSGGSTFYADSVKGRFTISRDNAKNTVYLKMNSLKPVDTAVYYCAADRSWSWYYRYDYWGQGTQVTLSS,low polyreactivity
5,QVQLVESGGGLVQAGGSLRLSCAASGRTFRYAMGWYRQAPGKERELVAAITGSGGSTYYADSVKGRFTISRDNAKNTVYLQMNSLKPEDTAVYYCAAARYDYWGQGTQVTVSS,high polyreactivity
6,QVQLVESGGGLVQAGGSLRLTCAASGSTYTGYAMGWYRQAPGKERELVAAISISGGRTFYADSVKGRFTISRDNAKNTVYLQMNSLKPEDTAVYYCAAYLRGSKYSFDYWGQGTQVTVSS,high polyreactivity
7,QVQLVESGGGLVQAGGSLRLSCAASGNIFVFYVMGWYRQAPGKERELVASISSTGNTYYADSVKGRFTISRDNAKNTVYLQMNSLKPEDTAVYYCAADSHQNVSGWLRWPRMDYWGQGTQVTVSS,low polyreactivity
8,QVQLVESRGGLVQAGGSLRLSCAASGIIFDTNAMGWYRQAPGKERELVATITQRGGTTYYADSVKGRFTISRDNAKNTVYLQMNSLKPEDTAVYYCNAGPVRLPYDSWGQGTQVTVSS,low polyreactivity
9,QVQLVESGGGLVQAGGSLRLSCAASGFTSHSYAMGWYRKAPGKERELVAAINGDGGSTYYADSVKGRFTISRDNAKNTLYLQMNSLKPEDTAVYYCAAETAYWYYWGQGSQVTVSS,high polyreactivity
10,QVQVVESGGGLVKAGGSLRLSCDASGSTFRDYVMGWYRQAPGKERELVAAITGSGSSTYYADSVKGRFTISRDNAKNSVYLQMNSLKPEDTAVYYCAATWVVSYRVNRSYYWGQGTQVTVSS,low polyreactivity
11,QVQLVESGGGLVQAGGSLRLSCAASGRTIRSYAMGRSRQAPGKEREWVAAISWSGGRTYYADSVKGRFTISRDNAKYTVYLQMTSLKPEDTADYYCAARVSVGVPRYEYWGQGTQVTVSA,high polyreactivity
12,QVQLVESGGGLVQAGGSLRLSCAAYGSIFDHYAMVWNRQAPGKERELVAAITYSDGSTYYADSVKGRFTISRDNAKNTVYLQMKSLKPEDTAVYYCAAYPRGSQRYNYWGQGTQVTVSS,high polyreactivity
13,QVQLVESGGGLVQAGGSLRLSCAASGSTFYPYAMGWYRQAPGKERELVAAINWSGGTTYYADSVKGRFTLSRDNAKNTVYLQMNSLKPEDTAVYYCAAVGYPPGYGYWGQGTQVTVSS,low polyreactivity
14,QVQLVESGGGLVQAGGSLRLSCAASGSILYIYAMGWYRQAPGKERELVAAITSSVGRTYYADSVKGRFTISRDNAKNTVYLQMNSLKPEDTAVYYCAAEYYYSQVAYDYWGQGTQVTVSS,high polyreactivity
15,QVQLVESGGGLVQAGGSLRLSCAASGSIYYFNAMGWYRQAPGKERELVASITSGGSTNYADSVKGRFTLSRDNAKNTVYLQMNSLNPEDTAVYYCNARFPYLSRWLVRGLASYDYWGQGTQVTVSS,low polyreactivity
16,QVQLVESGGGLVQAGGSLRLSCAASGLTFQRYAMGWYRQAHGKERELVAAISYRGSRTYYADSVKGRFTISRDNAKNTVYLQMNSMKPEDSAVYYCNKVRTGYGVTYLVGYWGQGTHVTVSS,high polyreactivity
17,QVQLVESGGGLVQAGGSLRLSCAASGSTFPVYAMGWYRQAPGKERELVAAITSGVSTNYADSVKGRFTISRDNAKNTVYLQMNSLKPEDTAFYYCAKDFGLLPIRDDYWGQGTQVTVSS,low polyreactivity
18,QVQLVESGGGLVQAGGSLRLSCAASGSIFNYNDMGWYRQAPGKERELVATITNGGGTNYADSVKGRFTISRDNAKNTVFLQMNSLKPEDTAVYYCAAGRSGWGYDSWGQGTQVTVSS,low polyreactivity
19,QVPLVESGGGIVQAGGSLRLSCAASGRTFRYNAMGWDRQAPGKEREKVAAITYGGGSTYYADSVKGRFTISRDNEKNTVYLQMNILKPEDTAVYYCATRGVSPSRPGYYCGQGTQVTVSS,high polyreactivity
20,QVQLVESGGGLVQAGGSLRLSFAASGRTFYINDMGWYRQAPGKERELVAAITWRGGSTYYADSVKGRFTISRDNAMNTVYLQMNSLKPEDTAVYYCAAYISLYWWYDYWGQGTQVTVSS,low polyreactivity
21,QVQLVESGAGLVQARGSLRLSCAASGYTFLGYAMGWYRQAPGKERELVAAINRSGSSTYYADSVKGRFTISRDNAKNTVYLQMNSLKPEDTAVYYCNARSGNRYGPRYDYWGQGTQVTVSS,high polyreactivity
